In patent US20210094999A1 one finds hIR binding IC50 (% of human insulin) (% of human insulin), % maxERK/% maxAKT and Elisa hIR pY1158 max (% of human insulin) (% of human insulin) data, which are given here for 31 substances.

The target of one test is solubilised human insulin receptor isoform A (IR-A) (human) (UniProt P06213). Briefly: competition SPA on solubilised human IR-A against [125I-TyrA14]-human insulin; affinity relative to human insulin.
Turning to Insulin degludec (ligand), the hIR binding IC50 (% of human insulin) (% of human insulin) amounted to 20.

The substance Insulin glargine (ligand) registered a hIR binding IC50 (% of human insulin) (% of human insulin) of 79.

The target in a further test is insulin receptor-A on CHO-hIR cells (human) (UniProt P06213). Briefly: cell-based or functional assay.
Take “N{Epsilon-B28}-15-carboxypentadecanoyl-[TyrB5,LysB28],des-(B29-B30)-Insulin (ligand; Lys B28: N-epsilon acylated with C16 diacid, no linker)”: the % maxERK/% maxAKT came out at 0.38 and the Elisa hIR pY1158 max (% of human insulin) (% of human insulin) was determined as 32.

“N{Epsilon-B29}-[(4S)-4-carboxy-4-(17-carboxyheptadecanoylamino)butanoyl]-[TyrB5,GlyB26],des-ThrB30-Insulin (ligand; Lys B29: N-epsilon acylated with C18 diacid-gGlu)”: the % maxERK/% maxAKT amounted to 0.36 and the Elisa hIR pY1158 max (% of human insulin) (% of human insulin) was 7.

“N{Epsilon-B28}-[(4S)-4-carboxy-4-[[(4S)-4-carboxy-4-(17-carboxyheptadecanoylamino)butanoyl]amino]butanoyl]-[TyrB5,LysB28],des-(B29-B30)-Insulin (ligand; Lys B28: N-epsilon acylated with C18 diacid-2xgGlu)”: the % maxERK/% maxAKT was 0.45 and the Elisa hIR pY1158 max (% of human insulin) (% of human insulin) turned out to be 36.

As to “N{Epsilon-B28}-[2-[2-[2-[[(4S)-4-carboxy-4-(17-carboxyheptadecanoylamino)butanoyl]amino]ethoxy]ethoxy]acetyl]-[TyrB5,AlaB26,LysB28],des-(B29-B30)-Insulin (ligand; Lys B28: N-epsilon acylated with C18 diacid-gGlu-OEG)”, the % maxERK/% maxAKT is 0.2 and the Elisa hIR pY1158 max (% of human insulin) (% of human insulin) was found to be 6.

As to “N{Epsilon-B28}-17-carboxyheptadecanoyl-[TyrB5,GlyB26,LysB28],des-(B29-B30)-Insulin (ligand; Lys B28: N-epsilon acylated with C18 diacid, no linker)”, the % maxERK/% maxAKT came to 0.07 and the Elisa hIR pY1158 max (% of human insulin) (% of human insulin) is 3.

Substance “N{Epsilon-B26}-17-carboxyheptadecanoyl-[TyrB5,LysB26],des-(B27-B30)-Insulin (ligand; Lys B26: N-epsilon acylated with C18 diacid, no linker)” displayed an Elisa hIR pY1158 max (% of human insulin) (% of human insulin) of 2.

Insulin degludec (ligand) registered a % maxERK/% maxAKT of 0.97 and an Elisa hIR pY1158 max (% of human insulin) (% of human insulin) of 87.

In the case of “N{Epsilon-B28}-[2-[2-[2-(17-carboxyheptadecanoylamino)ethoxy]ethoxy]acetyl]-[TyrB5,LysB28],des-(B29-B30)-Insulin (ligand; Lys B28: N-epsilon acylated with C18 diacid-OEG)”, the % maxERK/% maxAKT stood at 0.48 and the Elisa hIR pY1158 max (% of human insulin) (% of human insulin) was 31.

The substance “N{Epsilon-B29}-[(4S)-4-carboxy-4-(15-carboxypentadecanoylamino)butanoyl]-[TyrB5,AlaB26],des-ThrB30-Insulin (ligand; Lys B29: N-epsilon acylated with C16 diacid-gGlu)” displayed a % maxERK/% maxAKT of 0.3 and an Elisa hIR pY1158 max (% of human insulin) (% of human insulin) of 13.

“N{Epsilon-B28}-17-carboxyheptadecanoyl-[PheB5,LysB28],des-(B29-B30)-Insulin (ligand; Lys B28: N-epsilon acylated with C18 diacid, no linker)”: the % maxERK/% maxAKT amounted to 0.31 and the Elisa hIR pY1158 max (% of human insulin) (% of human insulin) was 10.

Consider “N{Epsilon-B26}-[(4S)-4-carboxy-4-(17-carboxyheptadecanoylamino)butanoyl]-[TyrB5,LysB26],des-(B27-B30)-Insulin (ligand; Lys B26: N-epsilon acylated with C18 diacid-gGlu)”, for which the % maxERK/% maxAKT stood at 0.33 and the Elisa hIR pY1158 max (% of human insulin) (% of human insulin) amounted to 6.

Consider “N{Epsilon-B28}-[(4R)-4-[(3R,10S,13R,17R)-3-hydroxy-10,13-dimethyl-2,3,4,5,6,7,8,9,11,12,14,15,16,17-tetradecahydro-1H-cyclopenta[a]phenanthren-17-yl]pentanoyl]-[TyrB5,LysB28],des-(B29-B30)-Insulin (ligand; Lys B28: N-epsilon acylated with lithocholic acid, no linker)”, for which the % maxERK/% maxAKT was found to be 0.29 and the Elisa hIR pY1158 max (% of human insulin) (% of human insulin) amounted to 14.

On to “N{Epsilon-B26}-[2-[2-[2-[[(4S)-4-carboxy-4-(17-carboxyheptadecanoylamino)butanoyl]amino]ethoxy]ethoxy]acetyl]-[TyrB5,LysB26],des-(B27-B30)-Insulin (ligand; Lys B26: N-epsilon acylated with C18 diacid-gGlu-OEG)”, for which the % maxERK/% maxAKT worked out at 0.27 and the Elisa hIR pY1158 max (% of human insulin) (% of human insulin) came to 20.

Take “N{Epsilon-B29}-[(4S)-4-carboxy-4-(15-carboxypentadecanoylamino)butanoyl]-[TyrB5],des-ThrB30-Insulin (ligand; Lys B29: N-epsilon acylated with C16 diacid-gGlu)”: the % maxERK/% maxAKT worked out at 0.84 and the Elisa hIR pY1158 max (% of human insulin) (% of human insulin) came out at 58.

As for “[TyrB5,AlaB26],des-ThrB30-Insulin (ligand)”, the % maxERK/% maxAKT was 0.85 and the Elisa hIR pY1158 max (% of human insulin) (% of human insulin) turned out to be 132.

In turn, Insulin aspart (ligand) yielded a % maxERK/% maxAKT of 0.79 and an Elisa hIR pY1158 max (% of human insulin) (% of human insulin) of 95.

In turn, “N{Epsilon-B28}-[2-[2-[2-[[(4S)-4-carboxy-4-(17-carboxyheptadecanoylamino)butanoyl]amino]ethoxy]ethoxy]acetyl]-[TyrB5,LysB28],des-(B29-B30)-Insulin (ligand; Lys B28: N-epsilon acylated with C18 diacid-gGlu-OEG)” had a % maxERK/% maxAKT of 0.61 and an Elisa hIR pY1158 max (% of human insulin) (% of human insulin) of 39.

For “N{Epsilon-B28}-[(4S)-4-carboxy-4-(17-carboxyheptadecanoylamino)butanoyl]-[TyrB5,LysB28],des-(B29-B30)-Insulin (ligand; Lys B28: N-epsilon acylated with C18 diacid-gGlu)”, the % maxERK/% maxAKT was determined as 0.37 and the Elisa hIR pY1158 max (% of human insulin) (% of human insulin) turned out to be 19.

The substance “N{Epsilon-B29}-tetradecanoyl-[TyrB5],des-ThrB30-Insulin (ligand; Lys B29: N-epsilon acylated with C14 (tetradecanoyl), no linker)” returned a % maxERK/% maxAKT of 0.66 and an Elisa hIR pY1158 max (% of human insulin) (% of human insulin) of 40.

With “N{Epsilon-B28}-[(4S)-4-carboxy-4-[[(4R)-4-[(3R,10S,13R,17R)-3-hydroxy-10,13-dimethyl-2,3,4,5,6,7,8,9,11,12,14,15,16,17-tetradecahydro-1H-cyclopenta[a]phenanthren-17-yl]pentanoyl]amino]butanoyl]-[TyrB5,LysB28],des-(B29-B30)-Insulin (ligand; Lys B28: N-epsilon acylated with lithocholic acid-gGlu)”, the % maxERK/% maxAKT was 0.32 and the Elisa hIR pY1158 max (% of human insulin) (% of human insulin) is 25.

Take “N{Epsilon-B28}-17-carboxyheptadecanoyl-[TyrB5,LysB28],des-(B29-B30)-Insulin (ligand; Lys B28: N-epsilon acylated with C18 diacid, no linker)”: the % maxERK/% maxAKT was determined as 0.35 and the Elisa hIR pY1158 max (% of human insulin) (% of human insulin) is 17.

Substance “N{Epsilon-B29}-[(4S)-4-carboxy-4-(15-carboxypentadecanoylamino)butanoyl]-[TyrB5,GlyB26],des-ThrB30-Insulin (ligand; Lys B29: N-epsilon acylated with C16 diacid-gGlu)” yielded a % maxERK/% maxAKT of 0.19 and an Elisa hIR pY1158 max (% of human insulin) (% of human insulin) of 8.

For “[TyrB5,LysB28],des-(B29-B30)-Insulin (ligand)”, the % maxERK/% maxAKT was determined as 0.84 and the Elisa hIR pY1158 max (% of human insulin) (% of human insulin) was 93.

“N{Epsilon-B28}-[2-[2-[2-[[(4S)-4-carboxy-4-(17-carboxyheptadecanoylamino)butanoyl]amino]ethoxy]ethoxy]acetyl]-[TyrB5,GlyB26,LysB28],des-(B29-B30)-Insulin (ligand; Lys B28: N-epsilon acylated with C18 diacid-gGlu-OEG)” gave a % maxERK/% maxAKT of 0.34 and an Elisa hIR pY1158 max (% of human insulin) (% of human insulin) of 7.

Substance Insulin lispro (ligand) gave an Elisa hIR pY1158 max (% of human insulin) (% of human insulin) of 104.

In turn, Insulin glargine (ligand) displayed a % maxERK/% maxAKT of 0.85 and an Elisa hIR pY1158 max (% of human insulin) (% of human insulin) of 104.

The substance “N{Epsilon-B28}-[(4S)-4-carboxy-4-(15-carboxypentadecanoylamino)butanoyl]-[TyrB5,LysB28],des-(B29-B30)-Insulin (ligand; Lys B28: N-epsilon acylated with C16 diacid-gGlu)” showed a % maxERK/% maxAKT of 0.47 and an Elisa hIR pY1158 max (% of human insulin) (% of human insulin) of 43.

Substance “N{Epsilon-B28}-15-carboxypentadecanoyl-[TyrB5,GlyB26,LysB28],des-(B29-B30)-Insulin (ligand; Lys B28: N-epsilon acylated with C16 diacid, no linker)” yielded a % maxERK/% maxAKT of 0.27 and an Elisa hIR pY1158 max (% of human insulin) (% of human insulin) of 10.

“N{Epsilon-B29}-[(4S)-4-carboxy-4-(17-carboxyheptadecanoylamino)butanoyl]-[TyrB5,AlaB26],des-ThrB30-Insulin (ligand; Lys B29: N-epsilon acylated with C18 diacid-gGlu)” yielded a % maxERK/% maxAKT of 0.29 and an Elisa hIR pY1158 max (% of human insulin) (% of human insulin) of 6.

Substance “[TyrB5,GlyB26],des-ThrB30-Insulin (ligand)” registered a % maxERK/% maxAKT of 0.82 and an Elisa hIR pY1158 max (% of human insulin) (% of human insulin) of 93.

With “N{Epsilon-B26}-[2-[2-[2-[[2-[2-[2-[[(4S)-4-carboxy-4-(17-carboxyheptadecanoylamino)butanoyl]amino]ethoxy]ethoxy]acetyl]amino]ethoxy]ethoxy]acetyl]-[TyrB5,LysB26],des-(B27-B30)-Insulin (ligand; Lys B26: N-epsilon acylated with C18 diacid-gGlu-2xOEG)”, the % maxERK/% maxAKT came out at 0.41 and the Elisa hIR pY1158 max (% of human insulin) (% of human insulin) came to 24.
